Measured values reported in patent US7176188B2, “Method of lethally sensitizing human and animal cells” (UniversitéLaval, priority 2003, dated 2007).

Assay: PARG activity of bacterial extracts expressing recombinant protein (TLC release of 32P-ADP-ribose from 32P-poly(ADP-ribose))
Format: biochemical, C. elegans
Conditions: for PARG activity (qualitative): bacterially expressed His-tagged protein, 24 h at 37° C.
Method: Cultures of M15-pREP4 bacteria transformed with pQE-PME-3L, were grown overnight at saturation at 37° C. Fresh cultures (1000 ml) were started with 50-mL overnight cultures and grown at 37° C. at OD600 nm 0.600. Cultures were then induced with 1 mM isopropyl-1-thio-β-d-galactopyranoside (IPTG) at 37° C. for 2.5 h. M15-pREP4 bacteria transformed with vector alone were also treated with 1 mM IPTG at 37° C. for 2.5 h. Cultures were pelleted at 3000×g for 10 min at 4° C., resuspended in 10 ml extraction buffer (50 mM KPO4, pH 7.5, 50 mM Kcl, 10 mM β-mercaptoethanol, 0.1% triton X-100) and passed twice at 16,000 psi in a French Pressure Cell (SLM-AMINCO®, Rochester, N.Y.) maintained at 4° C. Extracts were centrifuged for 10 min at 1000×g at 4° C. and protein concentration of supernatants were determined. Each supernatant (23.7 mg/ml for M15+pQE-30 and 22.2 mg/ml for pQE-PME-3L) were analyzed on SDS-PAGE and assayed for PARG activity.
PARG activity was determined according to Ménard et al (1987, Biochem. Cel Biol. 65: 668–673). Ten μl of worm or bacterial extracts were assayed for 24 h at 37° C. in the presence of ^32P-poly(ADP-ribose) followed by a thin layer chromatography. Radiolabeled ADP-ribose units released from ADP-ribose polymers were quantified directly on the TLC using an Instant Imager Electronic Autoradiography device (Canberra-Packard). One unit of PARG is defined as the amount of enzyme required to liberate 1 nmol of ADP-ribose per min at 37° C. under assay conditions (Menard and Poirier, 1987, Biochem. Cell Biol. 65: 668–673). Radiographic X-OMAT film was exposed to the TLC plate and placed at −80° C. for 24 h.

Row | Molecule | PARG activity (qualitative) | PARG activity compared to His-PME-4 (bacterial extracts, similar rate of bacterial expression)
1 | His-PME-4: His-tagged recombinant C. elegans PARG PME-4 (SEQ ID NO:11) expressed in bacteria from pET23a-PME-4 (protein, His tag; PEPTIDE (1)...(485) PME-4) MDHENLMKYLEEFRSIRFQPDFQKVDAERNVRYCEITDFPISNISFELLETGVSQQWRNCDQNLFNEYLKTYKNGGYSQFEDLLFKIWGYSEEKERFDLPALKSFYRKMSEIVGEDEVLEKLARLVRITKSACEVLPEKIYRLVGDIESATFSHIQCASLIAWMFFSDTPRLSFIIILQKTTCVAVEKLKFLFTYFDKMSIDPPIGAVSFRKMRITHKQYLENWKLRETNLLPDVQVFDKMSIEETALCTQIDFANKRLGGGVLKGGAVQEEIRFMMCPEMMVAILLNDVTQDLEAISIVGAYVFSSYTGYSNTLKWAKITPKHSAQNNNSFRDQFGRLQTETVAIDAVRNAGTPLECLLNQLTTEKLTREVRKAAIGFLSAGDGFSKIPVVSGWWGCGAFRGNKPLKFLIQVIACGISDRPLQFCTFGDTELAKKCEEMMTLFRNNNVRTGQLFLIINSIGPPLNYSEQYVFDAIRAKINSTKA | display PARG activity | –
2 | His-PME-3L: His-tagged recombinant C. elegans PARG PME-3L (SEQ ID NO:9) expressed in bacteria from pQE-PME-3L (protein, His tag; PEPTIDE (1)...(781) PME-3L) MSKKFIELGDPVTQDEKDYEDYVGVGFAHQVPTMKRRKLTEHGNTTESKEDPEEPKSRDVFVSSQSSDESQEDSAENPEIAKEVSENCENLTETLKISNIESLDNVTERSEHTLDNHKSTEPMEEDVNNKSNIDVAINSDEDDELVLEENNKEMRDGEQVQQDLFADDQELIEYPGIMKDTTTQLDITDSEVETAQKMEMIEETEADSTFVGEDSKNQRQSGTTSDEVDADSQINLATKTVRTSSSSFLSTVSTCEAPAKGRARMYQKELEKHVIAFTEGNLTLQPDLNKVDPDRNYRYCTIPNFPASQGKLREDNRYGPKIVLPQRWREFDSRGRRRDSYFYFKRKLDGYLKCYKTTGYFMFVGLLHNMWEFDPDITYKLPALEMYYKEMSELVGREEVLEKFARVARIAKTAEDILPERIYRLVGDVESATLSHKQCAALVARMFFARPDSPFSFCRILSSDKSICVEKLKFLFTYFDKMSMDPPDGAVSFRLTKMDKDTFNEEWKDKKLRSLPEVEFFDEMLIEDTALCTQVDFANEHLGGGVLNHGSVQEEIRFLMCPEMMVGMLLCEKMKQLEAISIVGAYVFSSYTGYGHTLKWAELQPNHSRQNTNEFRDRFGRLRVETIAIDAILFKGSKLDCQTEQLNKANIIREMKKASIGFMSQGPKFTNIPIVTGWWGCGAFNGDKPLKFIIQVIAAGVADRPLHFCSFGEPELAAKCKKIIERMKQKDVTLGMLFSMINNTGLPHKHFEFYVFDRISTYLSSSEDVESSKSSPSVSRA | display PARG activity | ~10 times
